One molecule from PMC7217734 (Journal of biomolecular structure & dynamics, 2019) can be followed below.

The test addresses peptide 91a (human). Nature of the test: ITC. On the technique in general: Isothermal titration calorimetry measures the heat released or taken up as one component is titrated into another.

B1: peptide 374a (peptide)
chain: EELARLEREYQDLLNVKMALDIEIATYRKLLEALESR
In the case of B1, the Kd was 3000 nM and the “stoichiometry N” value is roughly 1.

One may read the Kd as the free concentration of one partner at which half of the binding sites on the other are occupied at equilibrium, for simple one-to-one binding. Read a high Kd as weaker binding. For orientation: stoichiometry N means the number of molecules, sites or subunits per partner or assembly.
